{"source": "patent US20230330242A1", "about": "(published 2023)", "binders": {"B1": {"name": "ATX-P-885 (antibody, human IgG1, kappa, V domains shown)", "VH": "QVQLQQWGAGLLKPSETLSLTCAVYGGSFSGYYWSWIRQPPGKGLEWIGEINHSGSTNYNPSLKSRVTISVDTSKNQFSLKLSSVTAADTAVYYCAREGVYEDYWGQGTLVTVSS", "VL": "EIVLTQSPATLSLSPGERATLSCRASQSVSNYLAWYQQKPGQAPRLLIYDAYNRATGIPARFSGSGSGTDFTLTISSLEPEDFAVYYCQQRSNWPLTFGQGTRLEIKR", "notes": "Full length IgG (IgG1, kappa) expressed in HEK293; also called mAb B"}, "B2": {"name": "ATX-P-875 (antibody, human IgG1, kappa, V domains shown)", "VH": "not shown", "VL": "DIQMTQSPSSLSASVGDRVTITCRASQSISSYLNWYQQKPGKAPKLLIYAASSLQSGVPSRFSGSGSGTDFTLTISSLQPEDFATYYCQQYDNLPITFGQGTRLEIKR", "notes": "Full length IgG (IgG1, kappa) expressed in HEK293; also called mAb A"}}, "key": {"[1]": {"target": "T1, human ROR-1 endogenously expressed on JeKo-1 and MDA-MB-468 cells (human, UniProt Q01973 30-937)", "T1 construct": "whole, on cells; also called ROR-1 receptor; receptor tyrosine kinase like orphan receptor 1", "assay": "flow cytometry, cell binding saturation on ROR-1 positive cells", "experimental": "A cell binding saturation assay was developed to evaluate how well the anti_ROR-1 antibodies developed in Example 28 bound to endogenously expressed extracellular ROR-1 protein on cell lines. […] Cells were then washed and subjected to secondary antibody staining and detection by flow cytometry. Mean fluorescence (MFI) was determined by analysis on cytometer software. […] (See FIG. 27)."}, "Hu/Cy/Rh ROR1-His": {"target": "T2, Hu/Cy/Rh ROR1-His (human/cyno/rhesus, UniProt Q01973 30-403, limits assumed)", "T2 construct": "Purified His-tagged ROR1 protein; also called HUMAN/CYNO/RHESUS ROR-1; not shown: His tag", "assay": "SPR, purified protein"}, "[2]": {"target": "T1, human ROR-1 endogenously expressed on …", "assay": "cell-based or functional assay"}, "Mouse ROR1-His": {"target": "T3, Mouse ROR1-His (mouse, UniProt Q9Z139 30-403, limits assumed)", "T3 construct": "Purified His-tagged mouse ROR1 protein; not shown: His tag", "T3 sequence (Q9Z139 30-403 limits assumed)": "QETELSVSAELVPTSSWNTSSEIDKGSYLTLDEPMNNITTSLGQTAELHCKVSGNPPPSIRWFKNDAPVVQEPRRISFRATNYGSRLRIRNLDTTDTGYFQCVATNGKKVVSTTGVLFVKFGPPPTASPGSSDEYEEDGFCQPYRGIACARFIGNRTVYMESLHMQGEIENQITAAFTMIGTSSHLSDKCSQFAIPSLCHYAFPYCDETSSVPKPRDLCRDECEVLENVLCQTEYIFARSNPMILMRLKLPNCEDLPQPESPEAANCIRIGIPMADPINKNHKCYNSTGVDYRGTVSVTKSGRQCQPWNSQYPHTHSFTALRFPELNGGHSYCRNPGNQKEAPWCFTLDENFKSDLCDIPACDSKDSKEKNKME", "assay": "SPR, purified protein"}}, "data": [{"binder": "B1", "values": [{"measurement": "saturating concentration", "setting": "[1]", "value": 74, "unit": "nM"}, {"measurement": "Kd", "setting": "Hu/Cy/Rh ROR1-His", "value": 10.9, "unit": "nM"}, {"measurement": "koff", "setting": "Hu/Cy/Rh ROR1-His", "value": 0.00295, "unit": "s⁻¹"}, {"measurement": "kon", "setting": "Hu/Cy/Rh ROR1-His", "value": 270000, "unit": "M⁻¹ s⁻¹"}, {"measurement": "percent receptor internalization relative to zero hours", "setting": "[2]", "value": "≥ 75", "unit": "%"}, {"measurement": "Kd", "setting": "Mouse ROR1-His", "value": 45.3, "unit": "nM"}, {"measurement": "koff", "setting": "Mouse ROR1-His", "value": 0.00132, "unit": "s⁻¹"}, {"measurement": "kon", "setting": "Mouse ROR1-His", "value": 29200, "unit": "M⁻¹ s⁻¹"}]}, {"binder": "B2", "values": [{"measurement": "saturating concentration", "setting": "[1]", "value": 74, "unit": "nM"}]}]}
